B1: TYRO protein tyrosine kinase-binding protein (Homo sapiens), O43914 (parent)
chain: MGGLEPCSRLLLLPLLLAVSGLRPVQAQAQSDCSCSTVSPGVLAGIVMGDLVLTVLIALAVYFLGRLVPRGRGAAEAATRKQRITETESPYQELQGQRSDVYSDLNTQRPYYK
B2: Hematopoietic cell signal transducer (Homo sapiens), Q9UBK5 (parent)
chain: MIHLGHILFLLLLPVAAAQTTPGERSSLPAFYPGTSGSCSGCGSLSLPLLAGLVAADAVASLLIVGAVFLCARPRRSPAQEDGKVYINMPGRG

How the values were obtained:
[1] = variants of: B1; conditions: with nkg2c_human KLRC2, P26717
[2] = variants of: B1; conditions: with ki2s3_human KIR2DS3, Q14952
[3] = variants of: B2; conditions: with nkg2d_human KLRK1, P26718
Chain of nkg2d_human KLRK1, P26718 (P26718 whole entry): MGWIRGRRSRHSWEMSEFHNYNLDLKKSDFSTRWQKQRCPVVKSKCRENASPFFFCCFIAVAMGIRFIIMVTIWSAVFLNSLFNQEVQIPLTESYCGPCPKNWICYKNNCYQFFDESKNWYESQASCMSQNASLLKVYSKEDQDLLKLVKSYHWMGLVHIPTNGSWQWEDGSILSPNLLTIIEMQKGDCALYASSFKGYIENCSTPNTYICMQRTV

Chain of ki2s3_human KIR2DS3, Q14952 (Q14952 whole entry): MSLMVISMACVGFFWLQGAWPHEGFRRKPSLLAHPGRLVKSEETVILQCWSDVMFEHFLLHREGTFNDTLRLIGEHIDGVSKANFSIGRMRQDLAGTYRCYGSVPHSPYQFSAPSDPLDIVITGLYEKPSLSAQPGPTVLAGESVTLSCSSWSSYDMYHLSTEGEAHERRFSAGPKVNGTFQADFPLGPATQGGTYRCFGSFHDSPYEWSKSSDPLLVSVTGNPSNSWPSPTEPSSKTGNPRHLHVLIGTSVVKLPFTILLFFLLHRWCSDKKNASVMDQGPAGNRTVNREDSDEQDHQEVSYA
Chain of nkg2c_human KLRC2, P26717 (P26717 whole entry): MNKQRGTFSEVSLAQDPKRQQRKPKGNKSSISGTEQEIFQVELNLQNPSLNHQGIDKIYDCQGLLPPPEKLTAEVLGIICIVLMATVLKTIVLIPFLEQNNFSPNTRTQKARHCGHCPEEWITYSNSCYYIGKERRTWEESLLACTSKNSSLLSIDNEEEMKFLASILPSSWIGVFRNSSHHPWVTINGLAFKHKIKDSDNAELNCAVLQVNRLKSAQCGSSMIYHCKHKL

Row | effect of a mutation on the interaction [1] | effect of a mutation on the interaction [2] | effect of a mutation on the interaction [3] | Variant
1 | decreasing interaction | decreasing interaction |  | A58F
2 | decreasing interaction | decreasing interaction |  | T54A
3 |  |  | decreasing interaction | D57A
